Results on 41 sequences are retold here after the nanobody polyreactivity screen of Harvey et al. (2022).

This series in a line: yeast display, Sf9 membrane polyspecificity reagent, FACS + sequencing; frameworks hold sequencing errors. In short, it runs like this:
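Galactose-induced (36–48 hours) yeast carrying a synthetic nanobody display library were exposed to 10% biotinylated, detergent-solubilized Sf9 membrane reagent at 4 °C for 1 hour. FACS followed streptavidin microbead enrichment, using low and high (top ~1%) gates for expression (anti-HA) and reagent binding (streptavidin). Colony PCR, MiSeq 2 × 250 sequencing and CDR-length filtering followed. Labels for polyreactivity reflect the gate of origin.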
On to “QVQLVESGGGLVQAGGTLRISCAASGRTFGIYAMGWSRQAPGKERELVAAITGRGGSTHYADSVKGRFTISRDNAKNTVYLQMNSLQPEDTAVYYCAADYRYNRGITSNKDYEYWGQGTQVSVSS”, for which the “polyreactivity (PSR sort gate)” value was “low polyreactivity”.

“QVQLVESGGGLVQAGGTLRLSCAASGFIFGPNAMGWYRQAPGKERELVAAISWIGSSTYYADSVKGRFTISRDNAKNTVYLEMNSLKPEDTAVYYCNADLWVPSYLWGDYWGQGTQVTVSS”: the “polyreactivity (PSR sort gate)” value is given as “low polyreactivity”.

Regarding “QVQLVESGGGLVQAGGTLRLSCAASGFTFGFKAMGWYRQAPGKEREFVASITYRGGSTYYADSVKGRFTISRDNAKNSVYLQMNSLKPEDTAVYFCATVSTRLRDYWGQGTQVTVSS”, the “polyreactivity (PSR sort gate)” value is “high polyreactivity”.

For the sequence “QVQLVESGGGLVQAGGTLRLSCAASGFTFNYYAMGWYRQAPGKERELFAAISSRGTGTYYADSVKGRFTISRDNAKNTVYFQMNSLKPEDTAVYYCAADWFTWSWQETRYGYWGQGTQVTVSS”, the “polyreactivity (PSR sort gate)” value is reported as “high polyreactivity”.

On to “QVQLVESGGGLVQAGGTLRLSCAASGFTYKYYGMGWYRQAPGKERELVAAITSSGSTYYADSVKGRFTISRDNAKNTVYLQMNSLKPEDTAVYYCAAEGQRWQRWRYNYWGQGTQVTVSS”, for which the “polyreactivity (PSR sort gate)” value was “high polyreactivity”.

On to “QVQLVESGGGLVQAGGTLRLSCAASGGTFKVNAMGWYRQAPGKERELVASITGRGGSTYYADSVKGRFTISRDNAKNTVYLQMNSLKPEDTAVYYCAAAWRLGHLRFNSWGQGTQVTVSS”, for which the “polyreactivity (PSR sort gate)” value is listed as “high polyreactivity”.

In the case of “QVQLVESGGGLVQAGGTLRLSCAASGIIFGYYAMGCYRQAPGKERELVAAINSGGSTYYADSVKGRFTISRDNAKNTVYLQMNSLKPEDTAVYYCKAKLYSKYWGQGTQVTVSS”, the “polyreactivity (PSR sort gate)” value is recorded as “high polyreactivity”.

With “QVQLVESGGGLVQAGGTLRLSCAASGITFYVYAMGWYRQAPGKEREFVAAINGRGGSTYYADSVKGRFTISRDNAKNTVYLQMNSLKPEDTAVFYCAAESLAIYYKYPPYDYWGQGTQVTVSS”, the “polyreactivity (PSR sort gate)” value is “high polyreactivity”.

Consider “QVQLVESGGGLVQAGGTLRLSCAASGPMFTLNAMGWYRQAPGKERELVAAINRGGSTYYADSVRGRFTISRDNAKNTVYLQMNSLKPEDTAVYYCAARRRQGGHDYWGQGTQVTVSS”, for which the “polyreactivity (PSR sort gate)” value is given as “high polyreactivity”.

Regarding “QVQLVESGGGLVQAGGTLRLSCAASGRIFRVYAMGWYRQAPGKERELVATITRGGSTYADSVKGRFTISRDNAKNTVYLQMNSLKPEDTAVYYCAADLVLGYRYDYWGQVTQVTVSS”, the “polyreactivity (PSR sort gate)” value is reported as “high polyreactivity”.

As to “QVQLVESGGGLVQAGGTLRLSCAASGRTFGTYAMGWYRQEPGKERELVAAIRSNAGSTYYADSVKGRFTISRDNAKNTVYLQMNSLKPEDTAVYYCAKSYPSSRRYNFWGQGTQVTVSS”, the “polyreactivity (PSR sort gate)” value is “high polyreactivity”.

On to “QVQLVESGGGLVQAGGTLRLSCAASGRTFGWYAMGWYRQAPGKERELVASITQRGGRTYYADSVKGRFTISRDNAKNTVYLQMNSLKPEDTAVYYCAAKTSPGMYYWGQGTQVTVSS”, for which the “polyreactivity (PSR sort gate)” value is “high polyreactivity”.

Consider “QVQLVESGGGLVQAGGTLRLSCAASGRTFNGNAMGWYRQAPGKERELVAAISGGSTSYADSVKGRFTISRDNAKNTVYLQMNSLKPEDTAVYYCAATYIRRTIFRYNSWGQGTQVTVSS”, for which the “polyreactivity (PSR sort gate)” value was “low polyreactivity”.

“QVQLVESGGGLVQAGGTLRLSCAASGRTLRRYAIGWYRQAPGTERELVADNSWRGTSTNYADSVKGRFTISRDNAKNTVYLQMNSLKPEDTAVYYCAAKQTYTRLHYLGPSVWDNYDYWGQGTQVTVSS”: the “polyreactivity (PSR sort gate)” value was “high polyreactivity”.

On to “QVQLVESGGGLVQAGGTLRLSCAASGSIVVGNTMGWYRQAPGKERELVAAITWSGGRTYYADSVKGRFTISRDIAKNTVYLQMNSLKPEDTAVYYCAAPTYLRRGMDTYNLGYGYWGQGTQVTVSS”, for which the “polyreactivity (PSR sort gate)” value was “high polyreactivity”.

Consider “QVQLVESGGGLVQAGGTLRLSCAASGSIWRYAMGWYRKAPGKERELVATIARRGGSTYYADSVKGRFTISRDNAKNTVYLLMNSLKPEDPAVYYCAAAESASSFRFDYWGQGTQVTVSS”, for which the “polyreactivity (PSR sort gate)” value was “high polyreactivity”.

“QVQLVESGGGLVQAGGTLRLSCAASGSSYFYYAMGWYRQAPRKERELVADITSGGSTDYADSVKGRFTISRDNAKNTVYVQINSVNPEDSAVYYCAADDFSGYGTEYDYWGQGTQVTVSS”: the “polyreactivity (PSR sort gate)” value was “low polyreactivity”.

Regarding “QVQLVESGGGLVQAGGTLRLSCAASGSTFGYNAMGWYRQAPGKERELVARITSSGGSTYYADSVKGRFTISRDNAKNTVYLQMNSLKPEDTAVYYCAAGYPYRAVYRYYYWGQGTQVTVSS”, the “polyreactivity (PSR sort gate)” value was “high polyreactivity”.

Consider “QVQLVESGGGLVQAGGTLRLSCAASGSTFPGYAIGSNRQAPGKERELVAAISVSGDRTYYADSVKGRFTISRDNAKNTVYLQMNSLKPEDTAVYYCAVRTRYRSYGVWVGNYSWGQGTQVTVSS”, for which the “polyreactivity (PSR sort gate)” value was “high polyreactivity”.

For “QVQLVESGGGLVQAGGTLRLSCAASGSTFYENTMGWYRQARGKERELVAAISFRGGSTYYADSVKGRFTISRDNAKKTVYLQMNSLKPEDTAVYYCAKDYYTLRLYDYWGQGTLVTVSS”, the “polyreactivity (PSR sort gate)” value is given as “low polyreactivity”.

In the case of “QVQLVESGGGLVQAGGTLRLSCAASGSTIKPYAMGWNRQAPGKERELVAVIRWRGGRTYYADSVKGRFTISRDNAKNTAYFQINSQNPADTAVYYCAAGGSQAAGGYGYYGYDYWGQGTQVTVSA”, the “polyreactivity (PSR sort gate)” value is listed as “low polyreactivity”.

Turning to “QVQLVESGGGLVQAGGTLRLSCAASGYIFAWYAMGWYRQAPGKERELVATITWRGGSTYYADSVKGRFTISRDNAKNTVYLQMNSLKPEDTAVYYCNKDVTPLHYDSWGQGTQVTVSS”, the “polyreactivity (PSR sort gate)” value is “high polyreactivity”.

For “QVQLVESGGGLVQAGGTLRLSCAASGYTLTINVMGWYRPAPGKERELVAAITSSGASTNYADSVKGRFTISRDNAKNTVYLQMNSLKPEDTAVYYCNVGNEHQSDFVVPFDYNHWGQGTQVTVSS”, the “polyreactivity (PSR sort gate)” value is reported as “low polyreactivity”.

As for “QVQLVESGGGLVQAGGTLRLSCAPSGHIVFYYTKGWYRQAPGKERELVAGITIGGSTNYADSVKGRFTISRDNAKNTVYLQMNSLKPEDTAVYYCNVVKYVYIYSYWEYYYWGQGTQVTGSS”, the “polyreactivity (PSR sort gate)” value was “low polyreactivity”.

With “QVQLVESGGGLVQAGGTLRLSCDASGRTFHVYAMGWYRHAPGKERELVAAISGRTGSTYYADSVKGRFTISRDIAKNTVYLQMNSLKPEDTAVYYCAKGYSYGWWGGFGYWGQGTQVTVSS”, the “polyreactivity (PSR sort gate)” value was “high polyreactivity”.

In the case of “QVQLVESGGGLVQAGGTLRLSCPASGSNFNRYAMGSYRKAPGKERELVAAISSTGSTFYADSVKWRFTISRDNAKITVYLQMNSLTPEDTAVYYCNADATHDWLRVDTYEYWGQGTQVTVSS”, the “polyreactivity (PSR sort gate)” value was “low polyreactivity”.

With “QVQLVESGGGLVQAGGTLRLSCSASGGTIAIYAMGWYRHARGKEREMVARISYSSGSTHYADSVKGRFTISRDNAKNTVFLQMNSLKPEDSAVYYCAATAYWFYAKDYYWGQGSQVTVSS”, the “polyreactivity (PSR sort gate)” value is listed as “high polyreactivity”.

Take “QVQLVESGGGLVQAGGTLRLSCSASGRTFFSYAMGWYRQAQGKERELVAAITYSGGRTYYADSVKGRFTISRDNAKNTVYVQMNSLKRDDTAVYYCAGTHYREKMDYWGQGTQLTVSS”: the “polyreactivity (PSR sort gate)” value was “low polyreactivity”.

With “QVQLVESGGGLVQAGGTLRLSGAASGSTFFFNAMGWYRQAPGKEWELVAAITGSGGSTYYADSVQGRFTISRDNAKNTVYLQMNSLKPEDTAVYYCAAYGAKPSEYYWGQGTQVTVSS”, the “polyreactivity (PSR sort gate)” value is reported as “low polyreactivity”.

For the sequence “QVQLVESGGGLVQAGGTLRLSGAASGSTFVYNAMGWNIQAPGKERDLVAVITRRGGSPYYADSVNGRFTISRDNEKKTVYLQMNILNPEDTAVYYCAAGYRRTQTTDYHYWGHGTQVTVSS”, the “polyreactivity (PSR sort gate)” value is “high polyreactivity”.

As for “QVQLVESGGGLVQAGRSLRISCAASGRIFYYNDMGRYRQAPGKERELVAAITWTDDGTYYADSVKARFTISRDNAKNTVYLQMNSLKPEVTAVYYCAAESFYGFEYWGQGTQLTVSS”, the “polyreactivity (PSR sort gate)” value was “low polyreactivity”.

With “QVQLVESGGGLVQAGRSLRLICAASGSTFVIYDMVWYRQAPGKERELVAAISYSGGSTYYADSVKGRFKISRDNAKNTVYLEMNSLKPEDTAVYYCNAGVLVLLYSYLQSELEYWGQGTQVTVSS”, the “polyreactivity (PSR sort gate)” value is on record as “low polyreactivity”.

On to “QVQLVESGGGLVQAGRSLRLSCAASGFIILGNAMGWYRQAPGKERELVAAISSGGSTYADSVKGRFTISRDNAKNTVYLQMNSLKPEDTAVYYCAVDRAFRAQNYHEYDYWGQGTQVTVSS”, for which the “polyreactivity (PSR sort gate)” value is recorded as “low polyreactivity”.

For the sequence “QVQLVESGGGLVQAGRSLRLSCAASGITLVRNAMGWSRQAPGKEMELVAAISSNGDNTYYADSVKGRFTISSDNAKNTVYLQMNSLKPEDTAVYYCAVGGPVIWWGPKYDYWGQGTQVTVSS”, the “polyreactivity (PSR sort gate)” value is listed as “high polyreactivity”.

“QVQLVESGGGLVQAGRSLRLSCAASGLIFSWYAMGWYRQAPGKEREFVAAIRWSGSGTYYADSVKGRFTISRDNAKNTVYLQMNSLKPEDTAVYYCAVRWSSGSRRYNYWGQGTQVTVSS”: the “polyreactivity (PSR sort gate)” value is recorded as “high polyreactivity”.

On to “QVQLVESGGGLVQAGRSLRLSCAASGRIFYRKAMGWYRQAPGKERELVAGITSGGSTNYADSVKGRFTISRDNEKNTFDLQMNSVKPEDTAVYYCAKASPAKFYSEAGYDYWGQGTQVTVSS”, for which the “polyreactivity (PSR sort gate)” value was “low polyreactivity”.

With “QVQLVESGGGLVQAGRSLRLSCAASGRSFKYYPMGWYRQAPGKERELVARISRSSGNTYYADSVKGRFTISRDTAKNTVYLQMNSLKAEDTAVYFCATVPHYNGFNYWGQGTQVTVSS”, the “polyreactivity (PSR sort gate)” value is given as “high polyreactivity”.

In the case of “QVQLVESGGGLVQAGRSLRLSCAASGRTFPYYVMGWYRQAPGKDRELVAAINSGGRTNYADSVKGRFTISRDNAKNTVYLQLNSLKPEDTAVYYCTKRGHPARLGYYYWGQGTLVTVSS”, the “polyreactivity (PSR sort gate)” value is recorded as “low polyreactivity”.

“QVQLVESGGGLVQAGRSLRLSCAASGSIFSRNAMGWYRQAPGKERELVAAITGSASSTYYADSVKGRFTISRDNAKNTVYLQMNSLKPEDTAVYYCNAARVYLSECGQGTQVTVSS”: the “polyreactivity (PSR sort gate)” value is recorded as “high polyreactivity”.

Take “QVQLVESGGGLVQAGRSLRLSCAASGSILGTYAMGWYRQAPGKERELVAAISSSGRTSYADSVKGRFTISRDNAKNTVYLQMNSLKPEDTAVYYCNASNYIVLINDPDAAPWLYDYWGQGTQVTVSS”: the “polyreactivity (PSR sort gate)” value is given as “low polyreactivity”.

In the case of “QVQLVESGGGLVQAGRSLRLSCAASGSTFSVNAMGWYRQAPGKERELVAAIPSGGNTYADSVKGRFTISRDNAKNTVYLQMNSLKPEDTAVYYCAVDNRDLFFYPGGFDYWGQGTQVTVSS”, the “polyreactivity (PSR sort gate)” value is reported as “low polyreactivity”.
